In data set [1] the target is T1, Tnp26 Y54A (IS26 (bacterial insertion sequence; …, UniProt A0A2K9V0L7 1-234, Y54A;G117R).
T1 sequence: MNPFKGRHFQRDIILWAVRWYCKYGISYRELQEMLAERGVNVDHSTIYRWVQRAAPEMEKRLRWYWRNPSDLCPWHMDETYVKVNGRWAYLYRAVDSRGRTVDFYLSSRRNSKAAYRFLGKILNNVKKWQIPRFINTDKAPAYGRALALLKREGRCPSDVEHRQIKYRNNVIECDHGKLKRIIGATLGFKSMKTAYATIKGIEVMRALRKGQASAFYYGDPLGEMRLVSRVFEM
Description: MST.

The target of data set [2] is T2, Tnp26 F9A (IS26 (bacterial insertion sequence; …, UniProt A0A2K9V0L7 1-234, F9A;G117R).
T2 sequence: T1 sequence with F9A, A54Y
Description: EMSA.

For data set [3], the target named is T3, Tnp26 F4A (IS26 (bacterial insertion sequence; …, UniProt A0A2K9V0L7 1-234, F4A;G117R).
T3 sequence: T1 sequence with F4A, A54Y
Description: EMSA. A general note: Mobility shift assays separate free from complexed probe on a gel.

The target of data set [4] is T4, Tnp26 R49A (IS26 (bacterial insertion sequence; …, UniProt A0A2K9V0L7 1-234, R49A;G117R).
T4 sequence: T1 sequence with R49A, A54Y
Description: EMSA.

Data set [5] concerns the target T5, Tnp26 W50A (IS26 (bacterial insertion sequence; …, UniProt A0A2K9V0L7 1-234, W50A;G117R).
T5 sequence: T1 sequence with W50A, A54Y
The experiment in a line: EMSA.

Data set [6] concerns the target T6, Tnp26 WT (IS26 (bacterial insertion sequence; …, UniProt A0A2K9V0L7 1-234, G117R).
T6 sequence: T1 sequence with A54Y
The experiment in a line: MST.

The target of data set [7] is T6, Tnp26 WT. The experiment in a line: EMSA.
The target in data set [8] is T7, Tnp26 1-56 (IS26 (bacterial insertion sequence; …, UniProt A0A2K9V0L7 1-56).
T7 sequence: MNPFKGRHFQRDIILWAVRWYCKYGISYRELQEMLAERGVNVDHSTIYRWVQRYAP
The experiment in a line: EMSA.

For data set [9], the target named is T6, Tnp26 WT. Description: EMSA. This is another data set of the same source.
Data set [10] concerns the target T7, Tnp26 1-56. Description: EMSA. The source holds these as a separate data set.

Positions count from the first letter of the chain named. Like-named read-outs stand apart in the source and are kept apart here.

B1: TIRL 50mer (dsDNA)
DNA 1: TCAGATCGATGGCACTGTTGCAAATAGTCGGTGGTGATAAACTTATCATC
DNA 2: GATGATAAGTTTATCACCACCGACTATTTGCAACAGTGCCATCGATCTGA
As for B1, the Kd (usually the free concentration of one partner at which half of the binding sites on the other are occupied at equilibrium, for simple one-to-one binding) in [1] was found to be 802 nM. For the same molecule, the binding result in data set [2], in data set [3], in data set [4] and in data set [5] was “no binding” in each case.

B2: TIRR 50mer (dsDNA)
DNA 1: TCAGATCGATGGCACTGTTGCAAAGTTAGCGATGAGGCAGCCTTTTGTCT
DNA 2: AGACAAAAGGCTGCCTCATCGCTAACTTTGCAACAGTGCCATCGATCTGA
In data set [6], B2 displayed a dissociation constant (Kd) of 394 nM. Also, the binding result in data set [2], in data set [3], in data set [4] and in [5] was “no binding” in each case.

B3: TIRR 7G>T (dsDNA)
DNA 1: B2 DNA 1 with G17T
DNA 2: B2 DNA 2 with C34A
B3: the binding result in data set [7] and in [8] was “no binding” throughout.

B4: TIRR 1G>T 2G>T (dsDNA)
DNA 1: B2 DNA 1 with G11T, G12T
DNA 2: B2 DNA 2 with C39A, C40A
In turn, B4 showed a Kd in data set [6] of 240 nM.

B5: TIRR 10G>T (dsDNA)
DNA 1: B2 DNA 1 with G20T
DNA 2: B2 DNA 2 with C31A
As to B5, in [6], the equilibrium dissociation constant (Kd) stood at 872 nM.

B6: TIRR 25mer (dsDNA)
DNA 1: TCAGATCGATGGCACTGTTGCAAAG
DNA 2: CTTTGCAACAGTGCCATCGATCTGA
As to B6, the binding result in data set [9] is given as “no binding”.

B7: Scrambled TIRR (dsDNA)
DNA 1: TTCGTGACTACATCGATCTAGGCTAGCTAGTCAGCTGATCGACTAGCGAT
DNA 2: ATCGCTAGTCGATCAGCTGACTAGCTAGCCTAGATCGATGTAGTCACGAA
On to B7, for which the binding result in data set [10], in data set [2], in [3], in [4], in data set [7] and in data set [5] was “no binding” throughout.

The values above are taken from article PMC8477213.
